Test results reported in patent publication US20250179142A1 (SUNSHINE LAKE PHARMA, published 2025).

Legend:
[1] = target: the molecule itself; assay: SEC (size exclusion HPLC), self-association of the Fc into a homodimer
Protocol: (§1) In this example, the effects of introducing different mutations on the structural properties of Fc were tested, and the test results of some mutants are shown in Table 5. Test steps include:
(§2) Molecular cloning method was used to insert Fc nucleic acid sequence into mammalian cell expression vector, and ExpiCHO Fectamine™ CHO Transfection Kit (ThermoFisher Scientific) was used for transient transfection and expression in CHO-S cells; after purification by Protein A column, the target protein was obtained, and the target protein was analyzed by size exclusion high performance liquid chromatography (SEC). The main principle of SEC analysis is based on the molecular weight and three-dimensional structure of the analyte (such as protein). Generally, analytes with larger molecular weights will pass through the chromatographic column more quickly, so they have a shorter column retention time. On the contrary, analytes with smaller molecular weights have longer retention times. So SEC can be used to analyze the aggregation of protein molecules.

[2] = target: the molecule itself; assay: SEC (size exclusion HPLC), self-association of the Fc
Protocol: as §1, §2

[3] = target: glucagon-like peptide-1 receptor (UniProt P43220 24-463, limits assumed); assay: cell-based or functional assay

| GLP-1 activity (EC50, nM): intracellular cAMP in HEK293 cells with high GLP-1R expression [3] | Binder | other results |
| --- | --- | --- |
| 0.118 nM | GLP-1-Fc-GDF15 fusion protein D11 (Fc fusion) HGEGTFTSDVSSYLEEQAAKEFIAWLVKGGGGGGGSGGGGSGGGGSEAAGGPSVFLFPPKPKDTLMISRTPEVTCVVVDVSQEDPEVQFNWYVDGVEVHNAKTKPREEQFNSTYRVVSVLTVLHQDWLNGKEYKCKVSNKGLPSSIEKTISKAKGQPREPQVYTLPPSQEEMTKNQVSLTCLVKGFYPSDIAVEWESNGQPENNYKTTPPVLDSDGSFFLYSRLTVDKSRWQEGNVFSCSVMHEALHNHYTQESLSLSLGGGGGSGGGGSAPAPAPAPAPAPAPAPAPAPGGGGSGGGGSDHCPLGPGRCCRLHTVRASLEDLGWADWVLSPREVQVTMCIGACPSQFRAANMHAQIKTSLHRLKPDTVPAPCCVPASYNPMVLIQKTDTGVSLQTYDDLLAKDCHCI |  |
| 0.124 nM | GLP-1-Fc-GDF15 fusion protein D13 (Fc fusion) HGEGTFTSDVSSYLEEQAAKEFIQWLVKGGGGGGGSGGGGSGGGGSEAAGGPSVFLFPPKPKDTLMISRTPEVTCVVVDVSQEDPEVQFNWYVDGVEVHNAKTKPREEQFNSTYRVVSVLTVLHQDWLNGKEYKCKVSNKGLPSSIEKTISKAKGQPREPQVYTLPPSQEEMTKNQVSLTCLVKGFYPSDIAVEWESNGQPENNYKTTPPVLDSDGSFFLYSRLTVDKSRWQEGNVFSCSVMHEALHNHYTQESLSLSLGGGGGSGGGGSAPAPAPAPAPAPAPAPAPAPGGGGSGGGGSDHCPLGPGRCCRLHTVRASLEDLGWADWVLSPREVQVTMCIGACPSQFRAANMHAQIKTSLHRLKPDTVPAPCCVPASYNPMVLIQKTDTGVSLQTYDDLLAKDCHCI |  |
| 0.183 nM | GLP-1-Fc-GDF15 fusion protein D14 (Fc fusion) HGEGTFTSDVSSYLEEQAAKEFVQWLVKGGGGGGGSGGGGSGGGGSEAAGGPSVFLFPPKPKDTLMISRTPEVTCVVVDVSQEDPEVQFNWYVDGVEVHNAKTKPREEQFNSTYRVVSVLTVLHQDWLNGKEYKCKVSNKGLPSSIEKTISKAKGQPREPQVYTLPPSQEEMTKNQVSLTCLVKGFYPSDIAVEWESNGQPENNYKTTPPVLDSDGSFFLYSRLTVDKSRWQEGNVFSCSVMHEALHNHYTQESLSLSLGGGGGSGGGGSAPAPAPAPAPAPAPAPAPAPGGGGSGGGGSDHCPLGPGRCCRLHTVRASLEDLGWADWVLSPREVQVTMCIGACPSQFRAANMHAQIKTSLHRLKPDTVPAPCCVPASYNPMVLIQKTDTGVSLQTYDDLLAKDCHCI |  |
| 0.1 nM | GLP-1-Fc-GDF15 fusion protein D9 (Fc fusion) HGEGTFTSDVSSYLEEQAAKEFIAWLVKGGGGGGGSGGGGSGGGGSAPEAAGGPSVFLFPPKPKDTLMISRTPEVTCVVVDVSQEDPEVQFNWYVDGVEVHNAKTKPREEQFNSTYRVVSVLTVLHQDWLNGKEYKCKVSNKGLPSSIEKTISKAKGQPREPQVYTLPPSQEEMTKNQVSLTCLVKGFYPSDIAVEWESNGQPENNYKTTPPVLDSDGSFFLYSRLTVDKSRWQEGNVFSCSVMHEALHNHYTQQSLSLSLGGGGGSGGGGSAPAPAPAPAPAPAPAPAPAPGGGGSGGGGSDHCPLGPGRCCRLHTVRASLEDLGWADWVLSPREVQVTMCIGACPSQFRAANMHAQIKTSLHRLKPDTVPAPCCVPASYNPMVLIQKTDTGVSLQTYDDLLAKDCHCI |  |

More lines, now with the values behind:

| Binder | GLP-1 activity (EC50, nM): intracellular cAMP in HEK293 cells with high GLP-1R expression [3] | other results |
| --- | --- | --- |
| IgG4 Fc (AA, K439E) (other) EAAGGPSVFLFPPKPKDTLMISRTPEVTCVVVDVSQEDPEVQFNWYVDGVEVHNAKTKPREEQFNSTYRVVSVLTVLHQDWLNGKEYKCKVSNKGLPSSIEKTISKAKGQPREPQVYTLPPSQEEMTKNQVSLTCLVKGFYPSDIAVEWESNGQPENNYKTTPPVLDSDGSFFLYSRLTVDKSRWQEGNVFSCSVMHEALHNHYTQESLSLSLG |  | binding result [1]: binds |
| IgG4 Fc (AA, K439D) (other) EAAGGPSVFLFPPKPKDTLMISRTPEVTCVVVDVSQEDPEVQFNWYVDGVEVHNAKTKPREEQFNSTYRVVSVLTVLHQDWLNGKEYKCKVSNKGLPSSIEKTISKAKGQPREPQVYTLPPSQEEMTKNQVSLTCLVKGFYPSDIAVEWESNGQPENNYKTTPPVLDSDGSFFLYSRLTVDKSRWQEGNVFSCSVMHEALHNHYTQDSLSLSLG |  | binding result [1]: binds |
| IgG4 Fc (AA, F405Q/Y407E) (other) EAAGGPSVFLFPPKPKDTLMISRTPEVTCVVVDVSQEDPEVQFNWYVDGVEVHNAKTKPREEQFNSTYRVVSVLTVLHQDWLNGKEYKCKVSNKGLPSSIEKTISKAKGQPREPQVYTLPPSQEEMTKNQVSLTCLVKGFYPSDIAVEWESNGQPENNYKTTPPVLDSDGSFQLESRLTVDKSRWQEGNVFSCSVMHEALHNHYTQKSLSLSLG |  | binding result [2]: no binding |
| GLP-1-Fc-GDF15 fusion protein D8 (Fc fusion) HGEGTFTSDVSSYLEEQAAKEFIAWLVKGGGGGGGSGGGGSGGGGSAPEAAGGPSVFLFPPKPKDTLMISRTPEVTCVVVDVSQEDPEVQFNWYVDGVEVHNAKTKPREEQFNSTYRVVSVLTVLHQDWLNGKEYKCKVSNKGLPSSIEKTISKAKGQPREPQVYTLPPSQEEMTKNQVSLTCLVKGFYPSDIAVEWESNGQPENNYKTTPPVLDSDGSFFLYSRLTVDKSRWQEGNVFSCSVMHEALHNHYTQESLSLSLGGGGGSGGGGSAPAPAPAPAPAPAPAPAPAPGGGGSGGGGSDHCPLGPGRCCRLHTVRASLEDLGWADWVLSPREVQVTMCIGACPSQFRAANMHAQIKTSLHRLKPDTVPAPCCVPASYNPMVLIQKTDTGVSLQTYDDLLAKDCHCI | 0.084 nM |  |
